Patent US20120115880A1

Target: p53 (endogenous wild-type p53 of human retinoblastoma cells and human fetal retinal cells) (human) (UniProt P04637)
Assay: cell-based or functional assay

Sequence of p53 (endogenous wild-type p53 of human retinoblastoma cells and human fetal retinal cells) (human) (P04637 whole entry): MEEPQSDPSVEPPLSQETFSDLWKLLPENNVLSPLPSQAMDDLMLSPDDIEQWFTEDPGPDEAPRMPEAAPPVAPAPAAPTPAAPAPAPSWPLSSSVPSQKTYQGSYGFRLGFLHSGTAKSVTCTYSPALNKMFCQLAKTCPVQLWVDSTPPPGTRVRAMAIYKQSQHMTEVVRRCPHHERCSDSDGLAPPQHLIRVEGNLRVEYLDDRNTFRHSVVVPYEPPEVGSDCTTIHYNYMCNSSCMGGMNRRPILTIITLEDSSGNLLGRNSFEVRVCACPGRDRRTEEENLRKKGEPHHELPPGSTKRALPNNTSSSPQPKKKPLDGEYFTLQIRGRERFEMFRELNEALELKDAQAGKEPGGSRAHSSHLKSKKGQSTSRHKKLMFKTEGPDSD

- luciferase activity of the p53 reporter construct PG13 in retinoblastoma (Y79) cells: 19 fold
Substance: MDMX (ectopically expressed from the FLAG-tagged MDMX cDNA)
